Biological target: T1, recombinant human interleukin 12 (p40/p35 heterodimer) (human, UniProt P29460 23-328; P29459 23-219)
T1 chain 1: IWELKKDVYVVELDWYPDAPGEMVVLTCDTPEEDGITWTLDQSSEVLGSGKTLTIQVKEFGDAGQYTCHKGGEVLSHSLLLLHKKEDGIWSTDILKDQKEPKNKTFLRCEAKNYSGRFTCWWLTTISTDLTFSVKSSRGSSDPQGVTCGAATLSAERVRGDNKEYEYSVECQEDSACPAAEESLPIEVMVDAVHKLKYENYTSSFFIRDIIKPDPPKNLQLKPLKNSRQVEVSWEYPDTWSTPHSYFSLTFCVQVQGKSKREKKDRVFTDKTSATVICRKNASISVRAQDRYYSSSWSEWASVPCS
T1 chain 2: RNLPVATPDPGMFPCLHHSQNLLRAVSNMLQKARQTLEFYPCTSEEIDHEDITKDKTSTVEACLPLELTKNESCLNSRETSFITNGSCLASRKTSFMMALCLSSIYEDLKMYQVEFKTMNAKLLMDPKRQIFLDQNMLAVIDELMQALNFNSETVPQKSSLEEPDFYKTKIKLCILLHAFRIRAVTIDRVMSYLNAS
Experiment: BIAcore

| Binder | koff |
| --- | --- |
| FIRYDRSNKYYADSVKG [Y61 H54 R] | 2.5e-05 s⁻¹ |
| FIRYDYSNKYYADSVKG [Y61 H54 Y] | 0.000646 s⁻¹ |
| TIRYDGSNKYYADSVKG [Y61 H50 T] | 0.000205 s⁻¹ |
| FIRYDESNKYYADSVKG [Y61 H54 E] | 0.000351 s⁻¹ |
| FIRYTGSNKYYADSVKG [Y61 H53 T] | 0.0005 s⁻¹ |
| FIRYAGSNKYYADSVKG [Y61 H53 A] | 0.000404 s⁻¹ |
| FILYDGSNKYYADSVKG [Y61 H52 L] | 0.000347 s⁻¹ |
| FIRYLGSNKYYADSVKG [Y61 H53 L] | 0.0011 s⁻¹ |
| FIRYDVSNKYYADSVKG [Y61 H54 V] | 0.000435 s⁻¹ |
| FIQYDGSNKYYADSVKG [Y61 H52 Q] | 0.000285 s⁻¹ |
| FIRYDSSNKYYADSVKG [Y61 H54 S] | 0.000373 s⁻¹ |
| FIWYDGSNKYYADSVKG [Y61 H52 W] | 0.000351 s⁻¹ |
| FIRYDNSNKYYADSVKG [Y61 H54 N] | 0.000447 s⁻¹ |
| FIYYDGSNKYYADSVKG [Y61 H52 Y] | 0.000298 s⁻¹ |
| FIRYYGSNKYYADSVKG [Y61 H53 Y] | 0.000611 s⁻¹ |
| LIRYDGSNKYYADSVKG [Y61 H50 L] | 0.00044 s⁻¹ |
| KIRYDGSNKYYADSVKG [Y61 H50 K] | 0.000612 s⁻¹ |
| FIRYDDSNKYYADSVKG [Y61 H54 D] | 0.000455 s⁻¹ |
| FIHYDGSNKYYADSVKG [Y61 H52 H] | 0.000407 s⁻¹ |
| FITYDGSNKYYADSVKG [Y61 H52 T] | 0.000374 s⁻¹ |
| FIRYVGSNKYYADSVKG [Y61 H53 V] | 0.00044 s⁻¹ |
| FIRYDQSNKYYADSVKG [Y61 H54 Q] | 0.000316 s⁻¹ |

| Binder | koff |
| --- | --- |
| FISYDGSNKYYADSVKG [Y61 H52 S] | 0.000292 s⁻¹ |
| FIKYDGSNKYYADSVKG [Y61 H52 K] | 0.000262 s⁻¹ |
| FIRYFGSNKYYADSVKG [Y61 H53 F] | 0.00169 s⁻¹ |
| FIRYIGSNKYYADSVKG [Y61 H53 I] | 0.000944 s⁻¹ |
| YIRYDGSNKYYADSVKG [Y61 H50 Y] | 0.00023 s⁻¹ |
| FIRYNGSNKYYADSVKG [Y61 H53 N] | 0.000727 s⁻¹ |
| EIRYDGSNKYYADSVKG [Y61 H50 E] | 0.000347 s⁻¹ |
| FIVYDGSNKYYADSVKG [Y61 H52 V] | 0.000317 s⁻¹ |
| FIRYRGSNKYYADSVKG [Y61 H53 R] | 0.00167 s⁻¹ |
| CIRYDGSNKYYADSVKG [Y61 H50 C] | 0.000285 s⁻¹ |
| FIGYDGSNKYYADSVKG [Y61 H52 G] | 0.000321 s⁻¹ |
| FIRYDTSNKYYADSVKG [Y61 H54 T] | 0.000644 s⁻¹ |
| HIRYDGSNKYYADSVKG [Y61 H50 H] | 0.000309 s⁻¹ |
| FIEYDGSNKYYADSVKG [Y61 H52 E] | 0.000318 s⁻¹ |
| FIRYEGSNKYYADSVKG [Y61 H53 E] | 0.000399 s⁻¹ |
| NIRYDGSNKYYADSVKG [Y61 H50 N] | 0.000344 s⁻¹ |
| FIRYKGSNKYYADSVKG [Y61 H53 K] | 0.00158 s⁻¹ |
| FIRYDKSNKYYADSVKG [Y61 H54 K] | 0.000407 s⁻¹ |
| FIRYQGSNKYYADSVKG [Y61 H53 Q] | 0.000792 s⁻¹ |
| FIAYDGSNKYYADSVKG [Y61 H52 A] | 0.000171 s⁻¹ |
| FIRYSGSNKYYADSVKG [Y61 H53 S] | 0.000368 s⁻¹ |
| QIRYDGSNKYYADSVKG [Y61 H50 Q] | 0.00042 s⁻¹ |

Biological target: T1, recombinant human interleukin 12 …
Experiment: BIAcore
Remark: another data set of the same source

| Binder | koff |
| --- | --- |
| FTFSSLGMH [Y61 H32 L] | 0.00226 s⁻¹ |
| FTFSSYSMH [Y61 H33 S] | 0.000399 s⁻¹ |
| FTFYSYGMH [Y61 H30 Y] | 0.000319 s⁻¹ |
| FTFVSYGMH [Y61 H30 V] | 0.000399 s⁻¹ |
| FTFRSYGMH [Y61 H30 R] | 0.000245 s⁻¹ |
| FTFSSYPMH [Y61 H33 P] | 0.0016 s⁻¹ |
| FTFTSYGMH [Y61 H30 T] | 0.00032 s⁻¹ |
| FTFISYGMH [Y61 H30 I] | 0.000207 s⁻¹ |
| FTFSSYDMH [Y61 H33 D] | 0.00152 s⁻¹ |
| FTFSSNGMH [Y61 H32 N] | 0.00297 s⁻¹ |
| FTFSSRGMH [Y61 H32 R] | 0.00449 s⁻¹ |
| FTFSSCGMH [Y61 H32 C] | 0.00383 s⁻¹ |
| FTFSYYGMH [Y61 H31 Y] | 0.000398 s⁻¹ |
| FTFWSYGMH [Y61 H30 W] | 0.000216 s⁻¹ |
| FTFGSYGMH [Y61 H30 G] | 0.000233 s⁻¹ |
| FTFSSYAMH [Y61 H33 A] | 0.000273 s⁻¹ |
| FTFSSIGMH [Y61 H32 I] | 0.00161 s⁻¹ |
| FTFHSYGMH [Y61 H30 H] | 0.000296 s⁻¹ |
| FTFSNYGMH [Y61 H31 N] | 0.000191 s⁻¹ |
| FTFSIYGMH [Y61 H31 I] | 0.000334 s⁻¹ |
| FTFKSYGMH [Y61 H30 K] | 0.000225 s⁻¹ |
| FTFSSHGMH [Y61 H32 H] | 0.000461 s⁻¹ |
| FTFSSTGMH [Y61 H32 T] | 0.00148 s⁻¹ |
| FTFSSYNMH [Y61 H33 N] | 0.000308 s⁻¹ |
